Assay results reported in patent US20240360223A1.

Key:
[1] = molecular target: poly-specificity reagent (PSR); experiment: flow cytometry PSR assay: test article on Protein A beads, biotinylated PSR, read-out with SA-PE
[2] = molecular target: poly-specificity reagent (PSR); experiment: flow cytometry PSR assay: test article on protein A beads, biotinylated PSR detected with streptavidin-PE
[3] = molecular target: poly-specificity reagent (PSR); experiment: PSR assay: protein on protein A coated beads, biotinylated PSR, SA-PE, flow cytometry; + PSR panel (Q2 is 0 in the No PSR panel FIG. 43E)

Row | Substance | % of events in Q2 (Expression-FITC positive, Binding-PE positive), + PSR [1] | % of events in Q2 (Expression-FITC positive, Binding-PE positive), + PSR [2] | % of beads in quadrant Q2 (Binding-PE positive), + PSR [3]
1 | Rituximab (antibody) | 56.2% | – | –
2 | trastuzumab (antibody) | 0.087% | 0.067% | –
3 | Ixekuzumab (antibody) | – | – | 27.1%
4 | Ixekizumab (PSR positive control) (antibody) | – | 79.6% | –
5 | Ixekizumab (antibody) | 79.6% | – | –
